In the supplement of paper PMC7125110:
± gives the standard error. Variants at the floor of the assay were thinned out.

B1: glmS ribozyme (parent)
chain: AUAAAAGCGCCAGAACUACAGAAAUGUAGUUGACGAGGAGGAGGUUUAUCGAAUUUUCGGCGGAUGCCUCCAAA

Key:
Settings in all cases: with glucosamine-6-phosphate
glucosamine-6-phosphate [1] = variants of: B1; experiment: self-cleavage kobs at 40 uM GlcN6P; higher = faster cleavage; RNA array
In short: (§1)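 Glucosamine-6-phosphate (40 μM to 10 mM) in HEPES/KCl/Mg(OAc)2 buffer was flowed over sequenced MiSeq chips, and tiles were imaged over ~14 h. Barcoded ribozyme variants there had been transcribed in situ by E. coli RNA polymerase and were tracked through a hybridised Cy3 probe at 37 °C. One- or two-exponential decay fits to per-tile medians, normalised to baseline and to non-cleaving reference variants, gave kobs. kcat and KM came from weighted Michaelis–Menten fits across concentrations.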

glucosamine-6-phosphate [2] = variants of: B1; experiment: self-cleavage kobs at 160 uM GlcN6P; higher = faster cleavage; RNA array
In short: as §1

glucosamine-6-phosphate [3] = variants of: B1; experiment: self-cleavage kobs at 10000 uM GlcN6P; higher = faster cleavage; RNA array
In short: as §1

glucosamine-6-phosphate [4] = variants of: B1; experiment: self-cleavage kobs at 640 uM GlcN6P; higher = faster cleavage; RNA array
In short: as §1

glucosamine-6-phosphate [5] = variants of: B1; experiment: self-cleavage kobs at 2500 uM GlcN6P; higher = faster cleavage; RNA array
In short: as §1

Row | Variant | self-cleavage kobs at 40 uM GlcN6P (glucosamine-6-phosphate [1]) | self-cleavage kobs at 160 uM GlcN6P (glucosamine-6-phosphate [2]) | self-cleavage kobs at 10000 uM GlcN6P (glucosamine-6-phosphate [3]) | self-cleavage kobs at 640 uM GlcN6P (glucosamine-6-phosphate [4]) | self-cleavage kobs at 2500 uM GlcN6P (glucosamine-6-phosphate [5])
1 | C8U G62A | < 1e-05 s⁻¹ | < 1e-05 s⁻¹ | 7.26e-05 ± 1.2e-05 s⁻¹ | – | –
2 | A6G A15U C16U A39G C70U | < 1e-05 s⁻¹ | – | – | < 1e-05 s⁻¹ | –
3 | A36G U54C | < 1e-05 s⁻¹ | < 1e-05 s⁻¹ | – | – | –
4 | G35U U69C | < 1e-05 s⁻¹ | < 1e-05 s⁻¹ | < 1e-05 s⁻¹ | – | < 1e-05 s⁻¹
5 | C8G C61G | < 1e-05 s⁻¹ | < 1e-05 s⁻¹ | < 1e-05 s⁻¹ | < 1e-05 s⁻¹ | < 1e-05 s⁻¹
6 | C8U C50G C58G C71U | 0.000808 ± 0.00019 s⁻¹ | – | 0.000113 ± 2.1e-05 s⁻¹ | – | –
7 | G37U G43C G66U | < 1e-05 s⁻¹ | – | < 1e-05 s⁻¹ | – | –
8 | A14C A36G | < 1e-05 s⁻¹ | < 1e-05 s⁻¹ | < 1e-05 s⁻¹ | < 1e-05 s⁻¹ | < 1e-05 s⁻¹
9 | A14G C50A G51A | < 1e-05 s⁻¹ | – | – | – | < 1e-05 s⁻¹
10 | G37A C61A | < 1e-05 s⁻¹ | – | < 1e-05 s⁻¹ | < 1e-05 s⁻¹ | –
11 | G13C G43A G63A A64G | < 1e-05 s⁻¹ | – | < 1e-05 s⁻¹ | – | –
12 | G7A C67G | < 1e-05 s⁻¹ | – | – | < 1e-05 s⁻¹ | < 1e-05 s⁻¹
13 | A12G G35C G60A U65G C68G | 0.000127 ± 3.9e-05 s⁻¹ | – | 0.000121 ± 4.1e-05 s⁻¹ | – | 0.000384 ± 0.00015 s⁻¹
14 | U31G A39U C61U | < 1e-05 s⁻¹ | – | – | – | –
15 | A42G U55G G59C | < 1e-05 s⁻¹ | – | – | – | < 1e-05 s⁻¹
16 | G9C C11G G40A | < 1e-05 s⁻¹ | – | < 1e-05 s⁻¹ | – | –
17 | A33U A64U | < 1e-05 s⁻¹ | – | < 1e-05 s⁻¹ | < 1e-05 s⁻¹ | –
18 | A6G A53C U56G | < 1e-05 s⁻¹ | – | – | – | –
19 | G13A U45C A64G | < 1e-05 s⁻¹ | – | – | – | –
20 | C34A A53C | < 1e-05 s⁻¹ | – | < 1e-05 s⁻¹ | < 1e-05 s⁻¹ | < 1e-05 s⁻¹
21 | G7A G38U C58A | < 1e-05 s⁻¹ | – | < 1e-05 s⁻¹ | – | –
22 | A36C U54C A64U C67G | < 1e-05 s⁻¹ | – | – | – | –
23 | U30C G43A | < 1e-05 s⁻¹ | < 1e-05 s⁻¹ | < 1e-05 s⁻¹ | – | < 1e-05 s⁻¹
24 | G13C G38A C58U | < 1e-05 s⁻¹ | – | – | – | –
25 | C34G | < 1e-05 s⁻¹ | < 1e-05 s⁻¹ | < 1e-05 s⁻¹ | < 1e-05 s⁻¹ | < 1e-05 s⁻¹
